Measured values taken from the NTF2 design screens of Basanta et al. (2020).

Experiment: protease stability score; higher = more stable; yeast display proteolysis, trypsin and chymotrypsin;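 also: relative to predicted unfolded state with 0 unfolded-like and 1 meaning tenfold more protease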

Row | Sequence | protease stability score
1 | DEEKEDFHHAVELVLRVIKTGDEHTARELMDPRVRIDIDGQDFHGWQHIVHFVKHWRIERYSLKYVEYIDGRIHNTVLLDITVDGQRRNLEVYIIFLKYNGRWILTEVILR | 1.84
2 | DEEKEDIERYNRLYFNASTTGDEDTLKRLADPHVRIHVGDKDQVGMEHLSTRLLELRIEVEFDHRHIEVQGDKVTVDGTLTLHIEIGEKRYERRVDLILHWHKIDGRWLIEQVDML | 1.27
3 | DEEKEDNKHFLKIHREDLHTGNEDSLKRLADPNARIHIGDKDYHGWEFWLTLSRELGVDHMHLIIDHVDLQGEKARIEGELEFTVGDKKHRIKTRLILEKIDGVWVYKSVTIE | 1.04
4 | DEEKEEADEHIRLLIDVMKTGDEDSMRRLIDPNVRIRVDGKEDHGMEKLVHLLRHARYREVRIEHVEHQGEKVIIHYKAWVEIDGQENHKKWHFIVTKVDGKWTLKEVSVH | 2.3
5 | DEEKEEAEHFFHFFFHLLITGDEEQWFRLADPNMRVRVNGVLLHGREIWERLVQEIRVNHMHLDRMEIHVFNGRMDVYIIGHVRRIIGDKEETTTVHIRIVMFKVNGRWVIHAVEEDYR | 1.81
6 | DEEKEEARRVLEIFIRSTRTGNFKENTEQMDPNVRIDINGVELHGREDAIRLAVEARIHRVEIEHVTTIGDKVEVHGHVDGTFNGQRTRTRLYVVIEKVDGRWLISEYRYH | 1.29
7 | DEEKEEEDLVLEILIHMMRTGDEELLDELLDPNARQIVGDKEFIGRELSHWFATFFKNVKVEIKHFRVINGRIHMHVHIQIGDKRHDMRITARKVNGKWVLEESHIR | 1.62
8 | DEEKEEFKIASKLFIDSLRTGNEELLSFLFDPHAKSDVNGKNIHGMEILAETMSRLFERYKGMQIRVDEIRFFDGQIHLHGRVNFNGREHTVIVIINKVNGQWRIQDLQID | 1.11
9 | DEEKEEHEKMIERWLRALETGDEHLLRELIDPNVRLDINGRRTHGREDVLRLFVDLGIDHHDIHDVKIIDGRIDMDTRINVNGREIKIRVIARKFDGRWIVESFRVE | 1.89
10 | DEEKEEIELAIRLTEKMLKTGDEELWRENADPNARFVTENHDDHGREVIVKWVHEMRRKFKNMRLEIEDVRTFNGRLEIHLRLNVNGRDLKINIIVEKVNGRWFLREIEIQ | 1.74
11 | DEEKEEIRQFEETFVEAMKTGDEDVIRHLLDPHVRVDINGQTFHGREIVIEMVSRFPNVQVHIDDLDVQGNWAHSDVQLHQGDKYIRLHIDVTKIDGKWRITFLKFK | 1.45
12 | DEEKEELEKATEEWVHFMRTGDEDSLIKNLDPNVKNIFNGKEEIGREDLSHFIKHMGAKVVRIEDIKTQGDKVIIDTRIEVGDKHFEVTLYFEKINGRWFLHSVEIR | 0.512
13 | DEEKEETEKLAKDILHNIHTGNEEEFLKLADPNTRIVQGDFRTHGRESMHFWMREVRKLFKNVRIHWRLKDVRSFEGHAITHIEVEVSFDGRTDLIRMEIHVIVVNGKIEELIINTR | 0.695
14 | DEEKEEWEELFKEFEHSIHTGDFRVLAKQMDPHVRIIYGEKRVHGREDAHKLMRDTLEKLGVDHMHVEDNHLQGDFIHLQIRRHVNGRTMTVHFLIWKYNGRWYMHSIKIE | 1.43
15 | DEEKEEYNRKAKEFWQRWLTGDEKRLRELADPNVRLDIDGVELVGREEFVHAVHEFLRHIRFKDMKVHRTDNIDGKNESDFEVTGDVNGQDMKSRTHVLILLVNGKIKEVEHRWK | 0.222
16 | DEEKEEYRRAIEDWIKFFITGDFDLLKTLADPNARSEIGNYEFHGMEHISRRIVDIIERFKNMRYSVHSIDFQGDYVILHSYIIYGDKHLHLIVITYKFNGRWRFHSVRVE | 1.26
17 | DEEKEFAEEMTRIWIEFWKTGDEDDLSHMLDPNVRLIIIIGDKHIHMHGRERAIKEIRRLLHEWRIDDEHNEHIRYFNGKVDVRSRIHVTINGREHDHELVVRIFVVDGRVKSVSIEYR | 2.52
18 | DEEKEFAEIYLRRLEELYNTGDEEIEHDLLDPHVRINIGNKHIHGREQYIEHWRKLLIILGIERFTIHVRIKDVRIQGEFAHLDGRLELRVGDKRRTLDVELIILKVNGRWVNKHIHFL | 0.888
19 | DEEKEHAHRFYEEWVKAWRTGDFKHMLDLIDPNTKIVINGQEYHGMEMWSHIVEHLERLHGYRINHERIHHIRNIDGKVDSDVHVRGRYNGRDIDSRMHIHLDVVDGRIKSLEFRSK | 1.55
20 | DEEKEHAKEMLELHLRLWLTGNEDKLHRLADPHVRMTIDGKEFIGREEMIKAIREHLKRLGVDHVRIHWTRLHVVDGQIDLHTHIRLHVDGRTIEIESEIISVVFNGVMKSIEWKFK | 1.38
21 | DEEKEIHEELVRIWNHAVNTGNEELMERLMDPNVRLLYNGVDLIGMEHAREFNKRFDHLKIRRNEIKSFRVQGNKIDSDTHVDVELNINGKTLRVQQDQHWVVLKVDGRWYIHKIEIL | 0.799
22 | DEEKEISELLFRLIFHMLETGDEELSRRLLDPNTRTIWNGRHLHGREASELMRRILHHFVKGATTEIKDLKVQGDWMHFHVTIHIGDKRIRTEIIVHTIDGRIDSMEFRVT | 1.39
23 | DEEKEISKKATEILISILRTGDEDVMREYLDPHVRIDFNGKQLHGMDYLWRLLKHMRLRSLDVHSFHFVDGVIEVDSRSDGEVNGQRTDYHFHFIIEKVNGKWWLHKVKFE | 1.64
24 | DEEKEIVENTTRLYWHLMETGNFDRWMKEADPNTRQDVDGKELHGMELVAHRIRELLEKFKGVRFHVEDIKIINGRSHMDIRIIIGDKHIEAHLILLVVDGRLKHVSLIIR | 1.99
25 | DEEKEKAKEFLHEWFRSLETGDEDLLTKLLDPNARMDINGQRFVGRHDIQRFISELREKIPNMQIDFHDQEMTDVNGVVQVDMRVDIHYGDKSSHHRLHVYVLKINGRWINKHIHVRTK | 1.16

Row | Sequence | protease stability score
26 | DEEKELADYISHLLVENLKTGDWHSLRRLIDPNARLEYGDKEHHGWKEIYESKRHLDEELGVKHVNINIHRINYQGEKVEIDGEVRIHFNGRTENRKVNIELRIFNGRIKEVIVDIR | 1.17
27 | DEEKELNENLAKIILHMFHTGDEKRWSKMADPHMRANINGVTIHGRELVIKEFLHWRHRLGVKHEEIHHIDIQGDKVRTDSHVDIDGQRVNIILRVVVVNGRLHSEEVEIR | 0.787
28 | DEEKELNRHLAELWLHWWFTGDEEVITEMADPEVRFEVDGRTFHGRETLSRMISEKKRDLGADHERLRDVKVIGDKVHIESVIHVNGRELEVHIIIVVYNGRLKELRVEVK | 1.04
29 | DEEKELSKKLLEVFIKVMRTGDWRAFSERLDPHTRTDVNGVDIHGRENTLELLRRLEEEWGVSRVDVRIHDADHQGDYIKFDGIEIYNGVERRTRMVSEKFNGRWRNKIFILD | 0.238
30 | DEEKEMNRHFLEHLKTAYETGDEDSIIKNIDPHYRIIVGDKDLIGMEHVKKWLHHARIHEIHPRRLEVQGNKITNDIHVVGEVNGVLRSTDQIWYLLKVDGRWLIESIEIK | 1.11
31 | DEEKERMEELLRLWVEAVRTGDEETLHKLMDPDVRIEYGDKDHHGREEMHRMMREWYERVDVINTYHVRRIKIVDGKARVDAELDGTIDGKRVIFREILISSKYNGQWTVTSISIK | 1.43
32 | DEEKERMFEHWEDVLRDWYTGNEDNLRHLFDPHARTDVNGVELHGMDLISEVLRRHLEEIRIKSMHLRELRSVDGRIHEHGELRGRVNGVDVRREVRVHLTVVNGRMKEMRFENI | 0.394
33 | DEEKERSDRLYERFFTAIFTGDEDLIRKLLDPDTRYQIGDKSSHGRDDIYDRIREMRNKVPNLRWDIRHVRIQGEKVHLDVEFNVNGKRDEFHIELDIVNGRLRHIRIEPV | 1.24
34 | DEEKESAERWLHIFLHSMDTGDEDKIRKLLDPNVLNDVGDKVLIGRELAFKWFHHLRFRKVHLRDFRIINGRIEVDIDVRGEINGKEDHFRLEVDLRKINGRWVLHEIRID | 2.81
35 | DEEKETAHEIHRILIKAWITGDEDTLNELLDPNVRIDINGVDTHGMEELKRVFEEHKKEIRWKDVRPRHIHVINGQIHSDTDHNGVVNGVTRTRKAHWIIVVIDGKVHSIKFIIH | 1.29
36 | DEEKEVMKELYEMLIHDLLTGNEESLHKLLDPHVKVDIDGKILHGMEATVKWWKEAGADHTDIHSVERQGEKIIINMILRVGDKTLRLHVHIIVVNGRVESIRVELRHE | 1.01
37 | DEEKEYAIRILREFTKYWETGDFERMKELFDPNARLEIGDKRAVGRDKVLEVLLRELHELRFKHFELREEDVIGEKKHSELIVHMEIDGVWHRRNIRVEIVVIDGKIHRMRFEQH | 2.37
38 | DEEKHEALRLTREFLKLFFTGDWEKLVRLIDPDAKVEIGNFESVGRENIAHLLHLLNEEWRINDMRIHSFTVVNGQVRMDTEINGIYGDKNYETRTEIESVVIDGRLKHFSIRER | 1.24
39 | DEEKHEFELLLRLWLRTMETGDEQMSRRLVDPNVRIEIGDKDIHGREEMSRIVRHWRVHDYDIKDSTVQGDKAHLDGHIEGTIDGKTTRFHIHLNLEKINGRWLIKEVVVE | 2.19
40 | DEEKHELEERVRLHIERWKTGDEDTLRHYADPDVRTHIDVGDKKFNYHGREEIVQAYKHLLDQLGVKHSEIDRSTAVNGVVHLHMTLRFDGVRMEWRIDIWIIDGRTKTIHIEIRHR | 0.942
41 | DEEKHILDRYWEEWLHALITGDEERLMELIDPNAKHVFNGKELHGRESLTELLRRLGMEIKDIRDHDLKVIGDKLHIDTRIDGIINGRQTTIRMHIIATKIDGKWVHTKLEVR | 1.23
42 | DEEKHLALFLYRILVKWWLTGNEEDESHLADPHTRFEVNGVELIGRELSSHMIERELREIRVIIEIEEFRTVGDKVDIRLTLKYEYGDKEDSRESHLELIIIDGKTTHVEVRER | 1.6
43 | DEEKHSAEHFMRLWIESFETGDEESIKRLMDPHAKSDFNGVEMHGREYLEVIKREMRVKSSRLHVKHIDVIDGVVIIEGRMILDGEINGVRTRLESDVRFVVEKFDGRWILRSSSIK | 1.31
44 | DEEKKAIRKVWELVIHSLVTGDEDSVEKLLDPHVRVHINGVHLHGMETFRHTFHEWRLEIKSVHIQDMDSINGVARLDISFVGRFKFDGRVEETIIDIHLVVNKINGRWVIEEQKFE | 1.48
45 | DEEKKANHFNKEFDRNVQRNNETELRKMVDPNARVNVGEQNYSGRNKMVKIITDWLRKYDKFTIDVRRIDVHGNRIFIDFEMVVVSNGQRRTTEIRVVVEEHNGRLHIRVWEIT | 1.03
46 | DEEKKDIKHWLEKWITDTRTGDEEEILKMLDPNVRTEQGEFELHGRDALKHYIDRFDHIHEVDLEVKHVTEQGDKLHIKGTLRMDGIVDGVRRTFYFRTILIVRKIDGRWAVSRVILL | 2.32
47 | DEEKKDLDILIEILFEIIYTGNEEKFRELVDPNAKSRVGDKKTHGREDATKLLSKKWRHMRIRTMDVHDFRHYDGQIDVDSRLDGDINGVELLLEVRLILVKYDGRWLIKNIHIQ | 1.43
48 | DEEKKDLERLYELLLRSMFTGDWRALEELMDPNVLLQVNGKELHGWKLMVRVMREIRIEDHEVKHIELQGDKIHMDTRTHGEFDGRTDTTKTHVLAKKVDGQWRLKHYKID | 0.932
49 | DEEKKDVHKIWELFVEHYYTGDEEFLHRMADPNVRSDVNGKELHGRESLLSLMREWIDRADVIQHIDVEDRRIQGDKAYIRTRFVGLVNGKPVSTDVTIILSKVNGQWFMHRIVIK | 1.61
50 | DEEKKEILEIARRVIESLLTGDWEEDHELADPNVLYIQGDKEVHGMETTWRIIFELRHQIKGMTEHIHIRRVEIVNGVAHLDTELRLNVNGREVTHETHVHIFLYNGRVKRIEVRIK | 1.48
